Data set [1] addresses recombinant NetB (wild type NetB), Clostridium perfringens (Clostridium perfringens). Briefly: cell-based or functional assay.
Data set [2] deals with Clostridium perfringens alpha toxin. The format is biochemical.

Where “and” joins values, the source holds several entries; their conditions need not be identical. Equal values may be shown once. Entries after “also recorded” stand apart in the source; their conditions may differ.

B1: VHH antibody ENB-1A4 (VHH)
VHH: EVQLVESGGGLVQAGGSLRLSCAASGSIFSTNVMGWYRQAPGKQREFVAGITIGGTARYPDSVKGRFTISRDNTQNTVYLQMNNLKPEDTAVYYCNAVLPSDQRRWSWGQGTQVTVSS
On to B1, for which the lowest VHH concentration neutralizing NetB haemolysis in data set [1] is 1.25 µM and 0.625 µM.

B2: EAT-1G4 (protein, listed as Camelus sp.)
VHH: EVQLVESGGGLVQPGGSLRLSCAASGSIATINDMGWFRQAPGKQRDWVATIVSDGSTAYADSVKGRFTISRDNAKNTVYLQMNSLKPEDTAVYYCSARRHYGQGTQVTVSSAAASGSLEQKLISEEDLNGAAHHHHHHGAA
modifications: REGION 1..141: note = Description of sequence: EAT-1G4 antibody
For the molecule B2, in data set [2], the lecithinase activity neutralized is given as 100% and the “neutralization of alpha toxin lecithinase activity (in words)” value is “less capable of neutralizing”.

B3: EAT-1F2 (protein, listed as Camelus sp.)
VHH: EVQLVESGGGLVQAGGSLRLSCAGSGRTGSLYSMGWFRQAPGKEREFVAAITWRPSSTYYADSVKGRFTISRDDAKNTVYLQMNSLKPEDTAVYFCAARPRGGLSPTPQAYDYWGQGTQVTVSSAAASGSLEQKLISEEDLNGAAHHHHHHGAA
modifications: REGION 1..154: note = Description of sequence: EAT-1F2 antibody
B3: in data set [2], the “neutralization of alpha toxin lecithinase activity (in words)” value is “high neutralizing capacity; also recorded: unable to completely neutralize” and the residual lecithinase activity entry is “about 25%”.

B4: VHH antibody ENB-1D11 (VHH)
VHH: EVQLVESGGGLVQTGGSLRLSCTASGTIDMTYGLIWYRQAPGKERELVASIRRDGRTNYADSVKGRFTISIDNAKNSIHLQMNSLKPDDTARYYCNSPYHALWGQGTQVTVSS
Consider B4, for which the lowest VHH concentration neutralizing NetB haemolysis in data set [1] was 1.25 µM and 0.625 µM.
